# Measurements taken from PMC4081127.
# B1: Ta1305 (mevalonate-3-kinase) (Thermoplasma acidophilum DSM 1728) (protein)
# chain: MTYRSIGSTAYPTIGVVLLGGIANPVTRTPLHTSAGIAYSDSCGSIRSETRIYADEATHIYFNGTESTDDNRSVRRVLDRYSSVFEEAFGTKTVSYSSQNFGILSGSSDAGAASIGAAILGLKPDLDPHDVENDLRAVSESAGRSLFGGLTITWSDGFHAYTEKILDPEAFSGYSIVAFAFDYQRNPSDVIHQNIVRSDLYPARKKHADEHAHMIKEYAKTNDIKGIFDLAQEDTEEYHSILRGVGVNVIRENMQKLISYLKLIRKDYWNAYIVTGGSNVYVAVESENADRLFSIENTFGSKKKMLRIVGGAWHRRPE
# Substrate: C[C@@](O)(CCO)CC(=O)O
# Test: purified protein
# Details: pH 8.5; 55.0 °C
protein,measurement,value
B1,Km,97 ± 6 µM
